{"source": "paper PMC3063405", "key": {"[1]": {"molecular_target": "T1, PUM2-HD (Pumilio-homology domain) (Homo sapiens, UniProt Q8TB72 706-1056)", "T1 sequence (Q8TB72 706-1056)": "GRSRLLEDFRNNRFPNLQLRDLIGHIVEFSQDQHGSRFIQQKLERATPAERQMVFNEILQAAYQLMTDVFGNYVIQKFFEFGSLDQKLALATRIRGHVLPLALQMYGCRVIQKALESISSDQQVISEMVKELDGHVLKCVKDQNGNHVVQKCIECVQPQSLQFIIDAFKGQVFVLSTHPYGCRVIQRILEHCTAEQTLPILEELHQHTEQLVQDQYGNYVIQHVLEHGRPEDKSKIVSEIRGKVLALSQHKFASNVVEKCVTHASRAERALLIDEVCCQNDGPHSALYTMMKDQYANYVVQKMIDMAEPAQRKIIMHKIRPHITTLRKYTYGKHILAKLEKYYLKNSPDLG", "test": "crystal structure"}, "[2]": {"molecular_target": "T2, PUM1-HD (Pumilio-homology domain) (Homo sapiens, UniProt Q14671 828-1176)", "T2 sequence (Q14671 828-1176)": "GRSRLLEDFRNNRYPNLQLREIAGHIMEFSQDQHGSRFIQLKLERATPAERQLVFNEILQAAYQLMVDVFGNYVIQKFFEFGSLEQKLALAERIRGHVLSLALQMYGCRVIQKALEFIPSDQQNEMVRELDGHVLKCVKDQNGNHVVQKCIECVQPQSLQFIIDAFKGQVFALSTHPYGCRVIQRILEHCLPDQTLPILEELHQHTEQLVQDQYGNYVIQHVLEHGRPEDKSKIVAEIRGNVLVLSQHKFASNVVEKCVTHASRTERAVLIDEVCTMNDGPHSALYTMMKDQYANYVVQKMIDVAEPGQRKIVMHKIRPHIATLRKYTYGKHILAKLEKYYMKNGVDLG", "test": "crystal structure"}, "[3]": {"molecular_target": "T1, PUM2-HD (Pumilio-homology domain)", "test": "EMSA"}, "[4]": {"molecular_target": "T2, PUM1-HD (Pumilio-homology domain)", "test": "EMSA"}}}
{"binder": "UGUACAUC (ssRNA)", "note": "[erk2 NRE]", "values": [{"measurement": "binding result", "setting": "[1]", "result": "binds"}, {"measurement": "binding result", "setting": "[2]", "result": "binds"}]}
{"binder": "UGUAAAUA (ssRNA)", "note": "[p38α NREa]", "values": [{"measurement": "Kd", "setting": "[3]", "result": "0.17 ± 0.02", "unit": "nM"}, {"measurement": "Kd", "setting": "[4]", "result": "0.91 ± 0.08", "unit": "nM"}]}
{"binder": "UGUAGAUA (ssRNA)", "note": "[p38α NREb]", "values": [{"measurement": "Kd", "setting": "[3]", "result": "0.08 ± 0.01", "unit": "nM"}, {"measurement": "Kd", "setting": "[4]", "result": "0.63 ± 0.01", "unit": "nM"}]}
{"binder": "UGUACAUA (ssRNA)", "note": "[hb NRE2]", "values": [{"measurement": "Kd", "setting": "[3]", "result": "0.07 ± 0.01", "unit": "nM"}, {"measurement": "Kd", "setting": "[4]", "result": "1.01 ± 0.05", "unit": "nM"}]}
{"binder": "UGUAUAUA (ssRNA)", "note": "[hb NRE1]", "values": [{"measurement": "Kd", "setting": "[3]", "result": "0.36 ± 0.02", "unit": "nM"}, {"measurement": "Kd", "setting": "[4]", "result": "0.4 ± 0.01", "unit": "nM"}]}
